Legend:
[1] = target: T1, extracellular domain (ECD) of recombinant human Sortilin with a C-terminal HIS tag (ECD-huSortilin-HIS) (human, UniProt Q99523 78-755); test: ELISA, ECD-huSortilin-HIS coated at 1 ug/mL, goat anti-human IgG-HRP, chemiluminescence
T1 construct: Bought (R&D Systems); also called human sortilin-ECD; not shown: C-terminal HIS tag
T1 sequence: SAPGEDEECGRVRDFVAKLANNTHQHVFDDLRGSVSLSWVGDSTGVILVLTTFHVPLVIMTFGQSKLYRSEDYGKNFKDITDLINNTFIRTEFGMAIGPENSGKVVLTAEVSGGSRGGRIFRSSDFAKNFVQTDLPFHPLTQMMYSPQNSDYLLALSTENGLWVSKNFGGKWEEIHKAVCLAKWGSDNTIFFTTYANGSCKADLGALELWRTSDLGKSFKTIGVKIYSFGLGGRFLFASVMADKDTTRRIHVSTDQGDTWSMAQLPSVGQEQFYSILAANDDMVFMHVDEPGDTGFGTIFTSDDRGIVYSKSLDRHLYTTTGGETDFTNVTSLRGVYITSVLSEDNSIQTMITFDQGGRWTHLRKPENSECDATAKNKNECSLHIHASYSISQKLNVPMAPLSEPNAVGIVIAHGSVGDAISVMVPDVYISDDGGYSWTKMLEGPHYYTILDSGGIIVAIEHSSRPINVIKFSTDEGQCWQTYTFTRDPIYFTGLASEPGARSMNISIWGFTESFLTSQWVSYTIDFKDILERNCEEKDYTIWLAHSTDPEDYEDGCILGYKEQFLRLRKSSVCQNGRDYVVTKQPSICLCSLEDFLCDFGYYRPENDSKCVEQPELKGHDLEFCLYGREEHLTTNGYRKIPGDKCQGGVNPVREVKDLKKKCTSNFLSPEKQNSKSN
Procedure: 384-well ELISA plates were coated with 1 ug/mL recombinant ECD-huSortilin-HIS (20 uL/well) and incubated overnight at 4° C. all plates were blocked with 3% BSA in PBS for 1 hour at room temperature. Plates were then washed with Tris buffered saline containing 0.1% Tween20 (TBST) three times. 20 uL of humanized anti-Sortilin mAbs diluted 3-fold from 20 ug/mL to 0.3 ng/mL in 1% BSA in TBST were added to the wells, incubated for 1 hour at room temperature and then washed as above. Goat anti-human IgG specific-HRP (Jackson Immunoresearch) diluted 1:7000 in 1% BSA in TBST was then added at 20 uL per well to react with the bound antibodies and plates were incubated for 1 hour before being washed as above. Super signal Pico chemiluminescent ELISA substrate (ThermoFisher) was used for detection. 20 uL of substrate was added to each well and Relative Light Units (RLU) were measured immediately using the SpectraMax Paradigm (Molecular Devices). Data was analyzed and EC₅₀ was calculated using graphed Prism.

[2] = target: T1, extracellular domain (ECD) of …; test: SPR (Biacore T200), mAb captured by anti-human antibody on CM5, Sortilin 0.1-300 nM as analyte, global 1:1 fit
Procedure: Analysis was performed using a Biacore T200 to compare the binding affinity of chimeric and humanized antibodies to recombinant human Sortilin. Anti-Human antibody was immobilized on sensor chip CM5 (GE Healthcare Life Sciences) via amine coupling, and humanized antibodies (ligand) were captured to a level to ensure a maximum binding of analyte of 50 RU (approximately 100 RU of ligand binding). Various concentrations of Sortilin (ranging from 0.1 nM to 300 nM) were passed over the captured ligand at 50 μL/min in running buffer (HBS+0.05% P-20, 1 mg/mL BSA) for 300s association time and 1200s dissociation time. Regeneration of the chip surface was accomplished by 2 short injections of 3M MgCl. Data was blank subtracted to both a sensor not containing ligand and 0 nM analyte concentration. Analysis was performed using a global 1:1 fit with Biacore Insight Evaluation software (v2.0) with bulk refractive index set to zero RU.

B1: humanized 11M14 hu11M14VHv3b/hu11M14VLv4b (antibody, V domains shown)
VH: EVQLVESGGGLVQPGGSLRLSCAASGFTFNIYGMSWVRQAPGKGLEWVATISSGGIYTYYPDILKGRFTISRDNAKNSLYGQMNSLRAEDTAVYYCARHPGGAMDYWGQGTLVTVSS
VL: DIQMTQSPSSLSASVGDRVTITCRVSENIYSNLAWYQQKPGKSPKLLVYAATNIADGVPSRFSGSGSGTDYTLTISSLQPEDFATYYCQHFWGTPPWTFGQGTKLEIK
notes: Human IgG; also called 11M14H3bL4b
[1]
  EC50: 0.1 µg/mL
[2]
  Kd: 7.91 nM
  koff: 0.00344 s⁻¹
  kon: 435000 M⁻¹ s⁻¹

B2: chimeric 5E20 (antibody, human IgG1, kappa, L234A L235A, V domains shown)
VH: EVQLVESGGDLVKPGGSLKLSCAAPGFTFSTYGMSWVRQTPDKRLEWVAIISSGGSYTYYSDTVKGRFTISRDNAKNTLYLQMSSLKSEDTAMYYCSRSSSHWYFDVWGTGTTVTVSS
VL: DILMTQSPSSMSVSLGDTVSITCHASQGISSNIGWLQQKPGKSFKGLIYHGTNLKDGVPSRFSGSGSGADFSLTISSLESEDFADYFCVQYAQFPYTFGGGTKLEIKR
notes: The entries are described as 'a chimeric 5E20 heavy chain' and 'light chain'
[1]
  EC50: 0.07 µg/mL
[2]
  Kd: 0.66 nM

B3: humanized 5E20 hu5E20VHv3/hu5E20VLv3 (antibody, V domains shown)
VH: EVQLVESGGGLVQPGGSLRLSCAASGFTFSTYGMSWVRQAPGKRLEWVAIISSGGSYTYYSDTVKGRFTISRDNSKNSLYLQMNSLRAEDTAVYYCSRSSSHWYFDVWGQGTLVTVSS
VL: DIQMTQSPSSVSASVGDRVTITCHASQGISSNIGWLQQKPGKAFKGLIYHGTNLKDGVPSRFSGSGSGADFTLTISSLQPEDFATYFCVQYAQFPYTFGQGTKVEKR
notes: Human IgG; also called 5E20H3L3
[1]
  EC50: 0.09 µg/mL
[2]
  Kd: 15.3 nM
  koff: 0.0028 s⁻¹
  kon: 183000 M⁻¹ s⁻¹

B4: humanized 5E20 hu5E20VHv5/hu5E20VLv4 (antibody, V domains shown)
VH: EVQLVESGGGLVQPGGSLRLSCAASGFTFSTYGMSWVRQAPDKRLEWVAIISSGGSYTYYSDTVKGRFTISRDNSKNSLYLQMNSLKAEDTAVYYCSRSSSHWYFDVWGQGTLVTVSS
VL: DIQMTQSPSSVSASVGDRVTITCHASQGISSNIGWLQQKPGKAFKGLIYHGTNLKDGVPSRFSGSGSGADFTLTISSLQPEDFADYFCVQYAQFPYTFGQGTKVEKR
notes: Human IgG; also called 5E20H5L4
[1]
  EC50: 0.05 µg/mL
[2]
  Kd: 5.46 nM
  koff: 0.00115 s⁻¹
  kon: 211000 M⁻¹ s⁻¹

B5: humanized 5E20 hu5E20VHv7/hu5E20VLv4 (antibody, V domains shown)
VH: EVQLVESGGGLVQPGGSLRLSCAASGFTFSTYGMSWVRQTPDKRLEWVAIISSGGSYTYYSDTVKGRFTISRDNSKNSLYLQMNSLRAEDTAVYYCSRSSSHWYFDVWGQGTLVTVSS
VL: DIQMTQSPSSVSASVGDRVTITCHASQGISSNIGWLQQKPGKAFKGLIYHGTNLKDGVPSRFSGSGSGADFTLTISSLQPEDFADYFCVQYAQFPYTFGQGTKVEKR
notes: Human IgG; also called 5E20H7L4; hu5E20H7L4
[1]
  EC50: 0.04 µg/mL
[2]
  Kd: 5.02 nM
  koff: 0.0011 s⁻¹
  kon: 218000 M⁻¹ s⁻¹

B6: humanized 5E20 hu5E20VHv4/hu5E20VLv3 (antibody, V domains shown)
VH: EVQLVESGGGLVQPGGSLRLSCAASGFTFSTYGMSWVRQAPDKRLEWVAIISSGGSYTYYSDTVKGRFTISRDNSKNSLYLQMNSLRAEDTAVYYCSRSSSHWYFDVWGQGTLVTVSS
VL: DIQMTQSPSSVSASVGDRVTITCHASQGISSNIGWLQQKPGKAFKGLIYHGTNLKDGVPSRFSGSGSGADFTLTISSLQPEDFATYFCVQYAQFPYTFGQGTKVEKR
notes: Human IgG; also called 5E20H4L3
[1]
  EC50: 0.07 µg/mL
[2]
  Kd: 6.36 nM
  koff: 0.00145 s⁻¹
  kon: 228000 M⁻¹ s⁻¹

B7: humanized 5E20 hu5E20VHv5/hu5E20VLv3 (antibody, V domains shown)
VH: EVQLVESGGGLVQPGGSLRLSCAASGFTFSTYGMSWVRQAPDKRLEWVAIISSGGSYTYYSDTVKGRFTISRDNSKNSLYLQMNSLKAEDTAVYYCSRSSSHWYFDVWGQGTLVTVSS
VL: DIQMTQSPSSVSASVGDRVTITCHASQGISSNIGWLQQKPGKAFKGLIYHGTNLKDGVPSRFSGSGSGADFTLTISSLQPEDFATYFCVQYAQFPYTFGQGTKVEKR
notes: Human IgG; also called 5E20H5L3
[1]
  EC50: 0.07 µg/mL
[2]
  Kd: 6.01 nM
  koff: 0.0014 s⁻¹
  kon: 233000 M⁻¹ s⁻¹

B8: humanized 5E20 hu5E20VHv7/hu5E20VLv3 (antibody, V domains shown)
VH: EVQLVESGGGLVQPGGSLRLSCAASGFTFSTYGMSWVRQTPDKRLEWVAIISSGGSYTYYSDTVKGRFTISRDNSKNSLYLQMNSLRAEDTAVYYCSRSSSHWYFDVWGQGTLVTVSS
VL: DIQMTQSPSSVSASVGDRVTITCHASQGISSNIGWLQQKPGKAFKGLIYHGTNLKDGVPSRFSGSGSGADFTLTISSLQPEDFATYFCVQYAQFPYTFGQGTKVEKR
notes: Human IgG; also called 5E20H7L3
[1]
  EC50: 0.06 µg/mL
[2]
  Kd: 4.18 nM
  koff: 0.00108 s⁻¹
  kon: 259000 M⁻¹ s⁻¹

B9: humanized 5E20 hu5E20VHv3/hu5E20VLv4 (antibody, V domains shown)
VH: EVQLVESGGGLVQPGGSLRLSCAASGFTFSTYGMSWVRQAPGKRLEWVAIISSGGSYTYYSDTVKGRFTISRDNSKNSLYLQMNSLRAEDTAVYYCSRSSSHWYFDVWGQGTLVTVSS
VL: DIQMTQSPSSVSASVGDRVTITCHASQGISSNIGWLQQKPGKAFKGLIYHGTNLKDGVPSRFSGSGSGADFTLTISSLQPEDFADYFCVQYAQFPYTFGQGTKVEKR
notes: Human IgG; also called 5E20H3L4
[1]
  EC50: 0.07 µg/mL
[2]
  Kd: 14.8 nM
  koff: 0.00257 s⁻¹
  kon: 174000 M⁻¹ s⁻¹

B10: humanized 5E20 hu5E20VHv4/hu5E20VLv4 (antibody, V domains shown)
VH: EVQLVESGGGLVQPGGSLRLSCAASGFTFSTYGMSWVRQAPDKRLEWVAIISSGGSYTYYSDTVKGRFTISRDNSKNSLYLQMNSLRAEDTAVYYCSRSSSHWYFDVWGQGTLVTVSS
VL: DIQMTQSPSSVSASVGDRVTITCHASQGISSNIGWLQQKPGKAFKGLIYHGTNLKDGVPSRFSGSGSGADFTLTISSLQPEDFADYFCVQYAQFPYTFGQGTKVEKR
notes: Human IgG; also called 5E20H4L4
[1]
  EC50: 0.04 µg/mL
[2]
  Kd: 5.57 nM
  koff: 0.00117 s⁻¹
  kon: 209000 M⁻¹ s⁻¹

B11: humanized 8H24 hu8H24VHv1/hu8H24VLv1 (antibody, V domains shown)
VH: QAQLVQSGAEVKKPGSSVKVSCKASGYTFTSYSMHWVRQAPGQGLEWIGAIYPGNDATSYNQKFKGRATLTVDKSTSTAYMELSSLRSEDTAVYFCAREGYYGSSFEAWFASWGQGTTVTVSS
VL: DVVMTQTPLSLPVTPGEPASISCRSSQSIVHSNGNTYLEWYLQKPGQSPQLLIYKVSNRFSGVPDRFSGSGSGTDFTLKISRVEAEDVGVYYCFQGSHVLPTFGGGTKVEIK
notes: Human IgG; also called 8H24H1L1
[1]
  EC50: 0.14 µg/mL
[2]
  Kd: 2.22 nM
  koff: 0.00141 s⁻¹
  kon: 637000 M⁻¹ s⁻¹

B12: humanized 8H24 hu8H24VHv1/hu8H24VLv2 (antibody, V domains shown)
VH: QAQLVQSGAEVKKPGSSVKVSCKASGYTFTSYSMHWVRQAPGQGLEWIGAIYPGNDATSYNQKFKGRATLTVDKSTSTAYMELSSLRSEDTAVYFCAREGYYGSSFEAWFASWGQGTTVTVSS
VL: DVVMTQTPSSLPVTPGEPASISCRSSQSIVHSNGNTYLEWYLQKPGQSPQLLIYKVSNRFSGVPDRFSGSGSGTDFTLTISRVEAEDVGVYYCFQGSHVLPTFGGGTKVEIK
notes: Human IgG; also called 8H24H1L2; hu8H24H1L2
[1]
  EC50: 0.1 µg/mL
[2]
  Kd: 2.98 nM
  koff: 0.00134 s⁻¹
  kon: 450000 M⁻¹ s⁻¹

B13: humanized 8H24 hu8H24VHv2/hu8H24VLv1 (antibody, V domains shown)
VH: QAQLVQSGAEVVKPGSSVKVSCKASGYTFTSYSMHWVRQAPGQGLEWIGAIYPGNDATSYNQKFKGRATLTVDKSTSTAYMELSSLRSEDTAVYFCAREGYYGSSFEAWFASWGQGTTVTVSS
VL: DVVMTQTPLSLPVTPGEPASISCRSSQSIVHSNGNTYLEWYLQKPGQSPQLLIYKVSNRFSGVPDRFSGSGSGTDFTLKISRVEAEDVGVYYCFQGSHVLPTFGGGTKVEIK
notes: Human IgG; also called 8H24H2L1
[1]
  EC50: 0.06 µg/mL
[2]
  Kd: 2.29 nM
  koff: 0.00157 s⁻¹
  kon: 684000 M⁻¹ s⁻¹

B14: humanized 8H24 hu8H24VHv2/hu8H24VLv2 (antibody, V domains shown)
VH: QAQLVQSGAEVVKPGSSVKVSCKASGYTFTSYSMHWVRQAPGQGLEWIGAIYPGNDATSYNQKFKGRATLTVDKSTSTAYMELSSLRSEDTAVYFCAREGYYGSSFEAWFASWGQGTTVTVSS
VL: DVVMTQTPSSLPVTPGEPASISCRSSQSIVHSNGNTYLEWYLQKPGQSPQLLIYKVSNRFSGVPDRFSGSGSGTDFTLTISRVEAEDVGVYYCFQGSHVLPTFGGGTKVEIK
notes: Human IgG; also called 8H24H2L2
[1]
  EC50: 0.07 µg/mL
[2]
  Kd: 3.22 nM
  koff: 0.0015 s⁻¹
  kon: 466000 M⁻¹ s⁻¹
